The text below walks through data of publication PMC9720954, “Blood–brain barrier penetrating neprilysin degrades monomeric amyloid-beta in a mouse model of Alzheimer’s disease” (Alzheimer's Research & Therapy, 2022).

One assay concerns the target T1, Aβ1-42 aggregates (Homo sapiens (synthetic peptide; …, UniProt P05067).
T1 construct: amyloid-beta 1-42, cut product of the amyloid precursor protein (APP); numbers count on: the Aβ peptide; Soluble aggregates; also called Aβ42; Aβ1-42 soluble aggregates; source: aggregates prepared as previously described [50]
In words: ELISA; sandwich ELISA; 1 nM Aβ1-40 monomers or 1 nM Aβ1-42 aggregates held by coated rabbit polyclonal antibodies (C-terminal of Aβ, or Aβ1-42); serial dilutions of the recombinant proteins in 0.1% BSA, 0.05% Tween-20 in PBS, 2 h at RT; goat anti-mouse HRP. The conditions noted are these: both partners purified.

A further assay concerns the target T2, Aβ1-40 monomers (Homo sapiens (synthetic peptide; …, UniProt P05067).
T2 construct: amyloid-beta 1-40, cut product of the amyloid precursor protein (APP); numbers count on: the Aβ peptide; Used as monomers, held on the plate by a rabbit polyclonal antibody against the C-terminus of Aβ; also called Aβ40; wt-Aβ1-40; source: bought: Innovagen
The description is as above. Conditions: both partners purified.

T2 sequence (P05067 672-711): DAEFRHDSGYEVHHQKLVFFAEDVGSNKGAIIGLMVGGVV
T1 sequence (P05067 672-713): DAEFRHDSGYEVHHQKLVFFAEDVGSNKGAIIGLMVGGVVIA

B1: scFc-scFv8D3 (scFv, V domains shown)
VH: EVQLVESGGGLVQPGNSLTLSCVASGFTFSNYGMHWIRQAPKKGLEWIAMIYYDSSKMNYADTVKGRFTISRDNSKNTLYLEMNSLRSEDTAMYYCAVPTSHYVVDVWGQGVSVTVSS
VL: DIQMTQSPASLSASLEEIVTITCQASQDIGNWLAWYQQKPGKSPQLLIYGATSLADGVPSRFSGSRSGTQFSLKISRVQVEDIGIYYCLQAYNTPWTFGGGTKLELK
notes: first variable domain of scFv8D3, as in m1; (G4S)3 linker between the two parts of scFv8D3, written out from the printed formula; second variable domain of scFv8D3, as in m1; in-house linker between scFv8D3 and scFc; Lacks NEP; the control of the study; the signal peptide is cleaved on expression; Mw 81 kDa; also called scFv8D3-scFc; source: Expi293 cells, transfected (pcDNA3.4), purified …
For the molecule B1, the binding result in the assay with Aβ1-42 aggregates and with Aβ1-40 monomers was “no binding” throughout.
